From patent publication US7025971 (WASHINGTON UNIVERSITY, dated 2006) come the findings set out here.

First the molecules themselves.
B1: PapD (wild type) (other)
chain: AVSLDRTRAVFDGSEKSMTLDISNDNKQLPYLAQAWIENENQEKIITGPVIATPPVQRLEPGAKSMVRLSTTPDISKLPQDRESLFYFNLREIPPRSEKANVLQIALQTKIKLFYRPAAIKTRPNEVWQDQLILNKVSGGYRIENPTPYYVTVIGLGGSEKQAEEGEFETVMLSPRSEQTVKSANYNTPYLSYINDYGGRPVLSFICNGSRCSVKKEK
notes: also called WT PapD; native PapD

In assay [1] the target is B1. Nature of the assay: inhibition ELISA: PapD preincubated with peptide, MBP-G1′-140′-coated wells. For orientation: An ELISA detects its analyte on a solid surface through an enzyme-linked reagent.
Assay [2] deals with B1. Nature of the assay: soluble inhibition ELISA: 25-fold molar excess of peptide, 100 pmol/well PapD, G1′-19′WT-coated wells.
Description: (§1) The wells were washed with PBS and blocked with 3% bovine serum albumin (BSA).
Assay [3] addresses T1, maltose binding protein (MBP) (UniProt P0AEX9 27-392 = MBP).
T1 construct: also called MBP control
Description: co-expression, amylose affinity chromatography.

The target of assay [4] is T2, modified PapG peptide, Ser-9′ substituted by Cys, labelled with 5-IAF (E. coli).
T2 construct: also called labelled peptide; fluorescence labelled PapG analogue
Nature of the assay: fluorescence intensity at 514 nm of the 5-IAF-labelled PapG peptide against increasing PapD concentration.
Description: The environmentally sensitive fluorescent probe 5-IAF (5-iodoacetamidfluorescein) was then covalently coupled to the peptide via the sulfhydryl group on the Cys residue and the labelled peptide was purified; of course any other suitable envirorenmentally sensitive fluorescent probe may be employed.

The target in assay [5] is B1. Nature of the assay: ELISA, peptide coated on wells, PapD in solution, anti-PapD antiserum.
Description: (§2) 5 mg/ml stock solutions of peptides in water or 50% acetic acid were diluted to a concentration of 2.5 pmol/50 μl in PBS. 50 μl of the peptide solution was coated overnight onto microtiter wells (Nunc-Immuno Plate Maxisorp) at 4° C. The solutions in the plates were discarded, and the wells were blocked with 200 μl 3% bovine serum albumin (BSA, Sigma) in PBS (120 mM NaCl/2.7 mM KCl/10 mM phosphate buffer salts, pH 7.4) for 2 hours at 25° C. […] After 3 washes with PBS, the wells were incubated with a 1:1000 dilution of goat anti-rabbit IgG coupled to alkaline phosphatase (Sigma) in 3% BSA/PBS for 45 min. at 25° C. Following 3 washes with PBS and 3 washes with developing buffer (10 mM diethanolamine pH 9.5, 0.5 μM MgCl₂), 50 μl filtered p-nitrophenyl phosphate substrate (Sigma) in developing buffer (10 mg/ml) was added.
Assay [6] has as its target B1. Nature of the assay: ELISA, peptide coated on wells, anti-PapD antiserum.
The target of assay [7] is B1. Description: ELISA, peptide coated on wells (2.5 pmol/50 µl), PapD in solution.
Description: as §2
For assay [8], the target named is B1. Nature of the assay: ELISA, peptide coated on wells, PapD in solution.
Description: as §2
Assay [9] concerns the target B1. Description: ELISA, peptide coated on wells, 200 pmol PapD, anti-PapD antiserum.
Description: For assaying the second site peptides, all the peptides were dissolved in dimethyl sulfoxide (DMSO, Sigma, St. Louis, Mo., USA) to a final concentration 2 mM. The stock solutions were diluted to a proper concentration in PBS and coated overnight on microtiter wells at 4° C. All the peptide solutions were adjusted to the same DMSO concentration. The subsequent steps followed the procedure described above.
Assay [10] concerns the target T3, PapD Arg-8-Gly (E. coli, UniProt P15319 22-239).
T3 construct: also called R8G; pR8G
T3 sequence: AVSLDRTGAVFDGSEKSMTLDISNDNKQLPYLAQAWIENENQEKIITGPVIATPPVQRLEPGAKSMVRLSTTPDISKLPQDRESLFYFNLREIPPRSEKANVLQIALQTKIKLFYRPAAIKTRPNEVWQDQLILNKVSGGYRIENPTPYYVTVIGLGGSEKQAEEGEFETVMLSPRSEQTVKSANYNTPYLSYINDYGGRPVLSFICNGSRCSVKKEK
Description: native polyacrylamide gel mobility shift.

The target of assay [11] is T4, PapD Arg-8-Ala (E. coli, UniProt P15319 22-239).
T4 construct: also called R8A; pR8A
T4 sequence: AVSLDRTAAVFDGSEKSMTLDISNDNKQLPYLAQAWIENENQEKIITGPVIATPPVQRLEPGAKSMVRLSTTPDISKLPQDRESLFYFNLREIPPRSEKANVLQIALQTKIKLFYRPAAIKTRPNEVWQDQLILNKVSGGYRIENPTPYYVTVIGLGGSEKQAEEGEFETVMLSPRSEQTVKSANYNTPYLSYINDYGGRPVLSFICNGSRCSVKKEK
Description: native polyacrylamide gel mobility shift.

In assay [12] the target is T5, PapD Lys-112-Ala (E. coli, UniProt P15319 22-239).
T5 sequence: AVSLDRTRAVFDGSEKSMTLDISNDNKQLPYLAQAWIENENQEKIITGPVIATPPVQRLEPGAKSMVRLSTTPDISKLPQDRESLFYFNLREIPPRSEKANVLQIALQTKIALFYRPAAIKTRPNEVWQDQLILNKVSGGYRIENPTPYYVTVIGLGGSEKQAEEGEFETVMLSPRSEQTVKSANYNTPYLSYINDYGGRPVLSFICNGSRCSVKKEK
Nature of the assay: native polyacrylamide gel mobility shift.

Assay [13] deals with B1. Description: soluble inhibition ELISA on G1′-19′WT-coated wells.
Description: as §1

Where no end group is shown, it is not given here.

As for MVLSFP [G1′-6′], the binding result in assay [1] is on record as “binds”.
As usually defined, the % Inhibition is the change of the read-out against control, counted positive when it falls. Turning to TMVLSFP [G1′-7′WT], in assay [2], the “% Inhibition” value was determined as 49%.
As a reminder, the Kd is the free concentration of one partner at which half of the binding sites on the other are occupied at equilibrium, for simple one-to-one binding. As to B1, the binding result in [3] was “no binding”. Moreover, the Kd in assay [4] was 2500 nM.
Turning to KSVVPGDYEATATFELTYR (also called PapK peptide; K-peptide) [K1′-19′WT], in [5], the binding result is “binds”.

B2: SEQ ID NO 22 (peptide)
peptide: QHHYYDLWQDHYKMPY
notes: also called one of the other three second-site peptides of PapG (region 120′ to 156′)
Turning to B2, the binding result in [6] is on record as “no binding (tested: 200 pmol/50 ml of PapD)”.
Regarding GILNGGDFQTTASMAMIYN (also called PapF peptide) [F1′-19′WT], in assay [5], the binding result is “binds”.
For KKLEAGNYFAVLGFRVDYE (also called PapH peptide) [H1′-19′WT], the binding result in assay [7] is on record as “no binding”.
Take SGSMTMVLSFP (Water insoluble peptide) [G1′-11′WT]: in assay [8], the binding result was “binds”.

B3: SEQ ID NO 19 (peptide)
peptide: LPATNTLMLSFDNVGG
notes: as for B2
For B3, in assay [6], the binding result is “no binding (tested: 200 pmol/50 ml of PapD)”.
As for DQIKQLPATNTLMLSF (also called site 2 peptide) [G125′-140′], the binding result in assay [9] is given as “binds”.

B4: E1′-19′WT (peptide)
peptide: QNLIAGPFSATATLVASYS
notes: Water insoluble peptide; also called PapE peptide
With B4, the binding result in [5] was “binds”.

B5: SEQ ID NO 21 (peptide)
peptide: YKMPYDQIKQLPATNT
notes: as for B2
Take B5: in assay [6], the binding result is “no binding (tested: 200 pmol/50 ml of PapD)”.
On to KPGELSGSMTMVLSFP [G1′-16′WT], for which, in assay [8], the binding result was “binds”.

B6: G1′-19′WT (peptide)
peptide: GKRKPGELSGSMTMVLSFP
notes: Synthetic peptide; residues numbered from the C-terminus (Pro-1′); also called PapG 19-mer peptide; G-peptide
Consider B6, for which the binding result in assay [10], in [11] and in assay [12] was “no binding” throughout. In addition, in assay [2], the “% Inhibition” value stood at 63%.

B7: G1′-19′SV (peptide)
peptide: GKRKPVELSGSMTMVLSSP
notes: Variant of G1′-19′WT with Phe-2′ to Ser and Gly-14′ to Val
As to B7, the binding result in [13] is “binds”.
On to GKRKPGELSGSMTMVLSFP-NH2 (also called G1′-19′NH2) [G1′-19′amide], for which, in assay [2], the “% Inhibition” value amounted to 56%.

B8: G1′-8′WT (peptide)
peptide: MTMVLSFP
notes: also called PapG 8-mer peptide; octameric peptide
For the molecule B8, the binding result in assay [1] was “binds”.
